Reference: patent US20140271457A1 (AbbVie / Abbott, published 2014)

Biological target: Recombinant Human TNF-α/TNFSF1A (human, UniProt P01375 77-233)
Assay: cell-based or functional assay

Sequence of Recombinant Human TNF-α/TNFSF1A (P01375 77-233 limits assumed): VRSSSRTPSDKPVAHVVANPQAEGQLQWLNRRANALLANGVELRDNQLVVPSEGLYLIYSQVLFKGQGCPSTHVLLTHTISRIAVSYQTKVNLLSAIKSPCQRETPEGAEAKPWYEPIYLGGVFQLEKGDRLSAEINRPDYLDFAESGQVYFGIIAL

Binder | N-Terminal VD huTNFα Neutralization Assay IC50 [pM] | C-Terminal VD huTNFα Neutralization Assay IC50 [nM]
DVD2793 (bispecific antibody, IgG1) VH: EVQLVQSGAEVKKPGASVKVSCKASGYTFANYGIIWVRQAPGQGLEWMGWINTYTGKPTYAQKFQGRVTMTTDTSTSTAYMELSSLRSEDTAVYYCARKLFTTMDVTDNAMDYWGQGTTVTVSSGGGGSGGGGSEVQLVQSGAEVKKPGASVKVSCKASGYTFTKYWLGWVRQAPGQGLEWMGDIYPGYDYTHYNEKFKDRVTLTTDTSTSTAYMELRSLRSDDTAVYYCARSDGSSTYWGQGTLVTVSS VL: DIQMTQSPSSLSASVGDRVTITCRASQDISQYLNWYQQKPGKAPKLLIYYTSRLQSGVPSRFSGSGSGTDFTLTISSLQPEDFATYFCQQGNTWPPTFGQGTKLEIKRGGSGGGGSGDVLMTQTPLSLPVTPGEPASISCTSSQNIVHSNGNTYLEWYLQKPGQSPQLLIYKVSNRFSGVPDRFSGSGSGTDFTLKISRVEAEDVGVYYCFQVSHVPYTFGGGTKVEIKR | 6 | –
DVD2794 (bispecific antibody, IgG1) VH: EVQLVQSGAEVKKPGASVKVSCKASGYTFANYGIIWVRQAPGQGLEWMGWINTYTGKPTYAQKFQGRVTMTTDTSTSTAYMELSSLRSEDTAVYYCARKLFTTMDVTDNAMDYWGQGTTVTVSSASTKGPEVQLVQSGAEVKKPGASVKVSCKASGYTFTKYWLGWVRQAPGQGLEWMGDIYPGYDYTHYNEKFKDRVTLTTDTSTSTAYMELRSLRSDDTAVYYCARSDGSSTYWGQGTLVTVSS VL: DIQMTQSPSSLSASVGDRVTITCRASQDISQYLNWYQQKPGKAPKLLIYYTSRLQSGVPSRFSGSGSGTDFTLTISSLQPEDFATYFCQQGNTWPPTFGQGTKLEIKRTVAAPDVLMTQTPLSLPVTPGEPASISCTSSQNIVHSNGNTYLEWYLQKPGQSPQLLIYKVSNRFSGVPDRFSGSGSGTDFTLKISRVEAEDVGVYYCFQVSHVPYTFGGGTKVEIKR | 3 | –
DVD2796 (bispecific antibody, IgG1) VH: EVQLVQSGAEVKKPGASVKVSCKASGYTFANYGIIWVRQAPGQGLEWMGWINTYTGKPTYAQKFQGRVTMTTDTSTSTAYMELSSLRSEDTAVYYCARKLFTTMDVTDNAMDYWGQGTTVTVSSASTKGPEVQLVQSGAEVKKPGASVKVSCKASGYTFTKYWLGWVRQAPGQGLEWMGDIYPGYDYTHYNEKFKDRVTLTTDTSTSTAYMELRSLRSDDTAVYYCARSDGSSTYWGQGTLVTVSS VL: DIQMTQSPSSLSASVGDRVTITCRASQDISQYLNWYQQKPGKAPKLLIYYTSRLQSGVPSRFSGSGSGTDFTLTISSLQPEDFATYFCQQGNTWPPTFGQGTKLEIKRTVAAPSVFIFPPDVLMTQTPLSLPVTPGEPASISCTSSQNIVHSNGNTYLEWYLQKPGQSPQLLIYKVSNRFSGVPDRFSGSGSGTDFTLKISRVEAEDVGVYYCFQVSHVPYTFGGGTKVEIKR | 10 | –
DVD2797 (bispecific antibody, IgG1) VH: EVQLVQSGAEVKKPGASVKVSCKASGYTFANYGIIWVRQAPGQGLEWMGWINTYTGKPTYAQKFQGRVTMTTDTSTSTAYMELSSLRSEDTAVYYCARKLFTTMDVTDNAMDYWGQGTTVTVSSASTKGPSVFPLAPEVQLVQSGAEVKKPGASVKVSCKASGYTFTKYWLGWVRQAPGQGLEWMGDIYPGYDYTHYNEKFKDRVTLTTDTSTSTAYMELRSLRSDDTAVYYCARSDGSSTYWGQGTLVTVSS VL: DIQMTQSPSSLSASVGDRVTITCRASQDISQYLNWYQQKPGKAPKLLIYYTSRLQSGVPSRFSGSGSGTDFTLTISSLQPEDFATYFCQQGNTWPPTFGQGTKLEIKRTVAAPDVLMTQTPLSLPVTPGEPASISCTSSQNIVHSNGNTYLEWYLQKPGQSPQLLIYKVSNRFSGVPDRFSGSGSGTDFTLKISRVEAEDVGVYYCFQVSHVPYTFGGGTKVEIKR | 2 | –
DVD2798 (bispecific antibody, IgG1) VH: EVQLVQSGAEVKKPGASVKVSCKASGYTFTKYWLGWVRQAPGQGLEWMGDIYPGYDYTHYNEKFKDRVTLTTDTSTSTAYMELRSLRSDDTAVYYCARSDGSSTYWGQGTLVTVSSGGGGSGGGGSEVQLVQSGAEVKKPGASVKVSCKASGYTFANYGIIWVRQAPGQGLEWMGWINTYTGKPTYAQKFQGRVTMTTDTSTSTAYMELSSLRSEDTAVYYCARKLFTTMDVTDNAMDYWGQGTTVTVSS VL: DVLMTQTPLSLPVTPGEPASISCTSSQNIVHSNGNTYLEWYLQKPGQSPQLLIYKVSNRFSGVPDRFSGSGSGTDFTLKISRVEAEDVGVYYCFQVSHVPYTFGGGTKVEIKRGGSGGGGSGDIQMTQSPSSLSASVGDRVTITCRASQDISQYLNWYQQKPGKAPKLLIYYTSRLQSGVPSRFSGSGSGTDFTLTISSLQPEDFATYFCQQGNTWPPTFGQGTKLEIKR | – | 0.381
DVD2799 (bispecific antibody, IgG1) VH: EVQLVQSGAEVKKPGASVKVSCKASGYTFTKYWLGWVRQAPGQGLEWMGDIYPGYDYTHYNEKFKDRVTLTTDTSTSTAYMELRSLRSDDTAVYYCARSDGSSTYWGQGTLVTVSSASTKGPEVQLVQSGAEVKKPGASVKVSCKASGYTFANYGIIWVRQAPGQGLEWMGWINTYTGKPTYAQKFQGRVTMTTDTSTSTAYMELSSLRSEDTAVYYCARKLFTTMDVTDNAMDYWGQGTTVTVSS VL: DVLMTQTPLSLPVTPGEPASISCTSSQNIVHSNGNTYLEWYLQKPGQSPQLLIYKVSNRFSGVPDRFSGSGSGTDFTLKISRVEAEDVGVYYCFQVSHVPYTFGGGTKVEIKRTVAAPDIQMTQSPSSLSASVGDRVTITCRASQDISQYLNWYQQKPGKAPKLLIYYTSRLQSGVPSRFSGSGSGTDFTLTISSLQPEDFATYFCQQGNTWPPTFGQGTKLEIKR | – | 3.08
DVD2801 (bispecific antibody, IgG1) VH: EVQLVQSGAEVKKPGASVKVSCKASGYTFTKYWLGWVRQAPGQGLEWMGDIYPGYDYTHYNEKFKDRVTLTTDTSTSTAYMELRSLRSDDTAVYYCARSDGSSTYWGQGTLVTVSSASTKGPEVQLVQSGAEVKKPGASVKVSCKASGYTFANYGIIWVRQAPGQGLEWMGWINTYTGKPTYAQKFQGRVTMTTDTSTSTAYMELSSLRSEDTAVYYCARKLFTTMDVTDNAMDYWGQGTTVTVSS VL: DVLMTQTPLSLPVTPGEPASISCTSSQNIVHSNGNTYLEWYLQKPGQSPQLLIYKVSNRFSGVPDRFSGSGSGTDFTLKISRVEAEDVGVYYCFQVSHVPYTFGGGTKVEIKRTVAAPSVFIFPPDIQMTQSPSSLSASVGDRVTITCRASQDISQYLNWYQQKPGKAPKLLIYYTSRLQSGVPSRFSGSGSGTDFTLTISSLQPEDFATYFCQQGNTWPPTFGQGTKLEIKR | – | 0.116
DVD2802 (bispecific antibody, IgG1) VH: EVQLVQSGAEVKKPGASVKVSCKASGYTFTKYWLGWVRQAPGQGLEWMGDIYPGYDYTHYNEKFKDRVTLTTDTSTSTAYMELRSLRSDDTAVYYCARSDGSSTYWGQGTLVTVSSASTKGPSVFPLAPEVQLVQSGAEVKKPGASVKVSCKASGYTFANYGIIWVRQAPGQGLEWMGWINTYTGKPTYAQKFQGRVTMTTDTSTSTAYMELSSLRSEDTAVYYCARKLFTTMDVTDNAMDYWGQGTTVTVSS VL: DVLMTQTPLSLPVTPGEPASISCTSSQNIVHSNGNTYLEWYLQKPGQSPQLLIYKVSNRFSGVPDRFSGSGSGTDFTLKISRVEAEDVGVYYCFQVSHVPYTFGGGTKVEIKRTVAAPDIQMTQSPSSLSASVGDRVTITCRASQDISQYLNWYQQKPGKAPKLLIYYTSRLQSGVPSRFSGSGSGTDFTLTISSLQPEDFATYFCQQGNTWPPTFGQGTKLEIKR | – | 0.195
DVD3018 (bispecific antibody, IgG1) VH: EVQLVQSGAEVKKPGASVKVSCKASGYTFNNYGIIWVRQAPGQGLEWMGWINTYTGKPTYAQKFQGRVTMTTDTSTSTAYMELSSLRSEDTAVYYCARKLFNTVAVTDNAMDYWGQGTTVTVSSGGGGSGGGGSEVQLVQSGAEVKKPGASVKVSCKASGYTFTKYWLGWVRQAPGQGLEWMGDIYPGYDYTHYNEKFKDRVTLTTDTSTSTAYMELRSLRSDDTAVYYCARSDGSSTYWGQGTLVTVSS VL: DIQMTQSPSSLSASVGDRVTITCRASQDIENYLNWYQQKPGKAPKLLIYYTSRLQSGVPSRFSGSGSGTDFTLTISSLQPEDFATYFCQQGNTQPPTFGQGTKLEIKRGGSGGGGSGDVLMTQTPLSLPVTPGEPASISCTSSQNIVHSNGNTYLEWYLQKPGQSPQLLIYKVSNRFSGVPDRFSGSGSGTDFTLKISRVEAEDVGVYYCFQVSHVPYTFGGGTKVEIKR | 8 | –
DVD3019 (bispecific antibody, IgG1) VH: EVQLVQSGAEVKKPGASVKVSCKASGYTFNNYGIIWVRQAPGQGLEWMGWINTYTGKPTYAQKFQGRVTMTTDTSTSTAYMELSSLRSEDTAVYYCARKLFNTVAVTDNAMDYWGQGTTVTVSSASTKGPEVQLVQSGAEVKKPGASVKVSCKASGYTFTKYWLGWVRQAPGQGLEWMGDIYPGYDYTHYNEKFKDRVTLTTDTSTSTAYMELRSLRSDDTAVYYCARSDGSSTYWGQGTLVTVSS VL: DIQMTQSPSSLSASVGDRVTITCRASQDIENYLNWYQQKPGKAPKLLIYYTSRLQSGVPSRFSGSGSGTDFTLTISSLQPEDFATYFCQQGNTQPPTFGQGTKLEIKRTVAAPDVLMTQTPLSLPVTPGEPASISCTSSQNIVHSNGNTYLEWYLQKPGQSPQLLIYKVSNRFSGVPDRFSGSGSGTDFTLKISRVEAEDVGVYYCFQVSHVPYTFGGGTKVEIKR | 9 | –
DVD3021 (bispecific antibody, IgG1) VH: EVQLVQSGAEVKKPGASVKVSCKASGYTFNNYGIIWVRQAPGQGLEWMGWINTYTGKPTYAQKFQGRVTMTTDTSTSTAYMELSSLRSEDTAVYYCARKLFNTVAVTDNAMDYWGQGTTVTVSSASTKGPEVQLVQSGAEVKKPGASVKVSCKASGYTFTKYWLGWVRQAPGQGLEWMGDIYPGYDYTHYNEKFKDRVTLTTDTSTSTAYMELRSLRSDDTAVYYCARSDGSSTYWGQGTLVTVSS VL: DIQMTQSPSSLSASVGDRVTITCRASQDIENYLNWYQQKPGKAPKLLIYYTSRLQSGVPSRFSGSGSGTDFTLTISSLQPEDFATYFCQQGNTQPPTFGQGTKLEIKRTVAAPSVFIFPPDVLMTQTPLSLPVTPGEPASISCTSSQNIVHSNGNTYLEWYLQKPGQSPQLLIYKVSNRFSGVPDRFSGSGSGTDFTLKISRVEAEDVGVYYCFQVSHVPYTFGGGTKVEIKR | 7 | –
DVD3022 (bispecific antibody, IgG1) VH: EVQLVQSGAEVKKPGASVKVSCKASGYTFNNYGIIWVRQAPGQGLEWMGWINTYTGKPTYAQKFQGRVTMTTDTSTSTAYMELSSLRSEDTAVYYCARKLFNTVAVTDNAMDYWGQGTTVTVSSASTKGPSVFPLAPEVQLVQSGAEVKKPGASVKVSCKASGYTFTKYWLGWVRQAPGQGLEWMGDIYPGYDYTHYNEKFKDRVTLTTDTSTSTAYMELRSLRSDDTAVYYCARSDGSSTYWGQGTLVTVSS VL: DIQMTQSPSSLSASVGDRVTITCRASQDIENYLNWYQQKPGKAPKLLIYYTSRLQSGVPSRFSGSGSGTDFTLTISSLQPEDFATYFCQQGNTQPPTFGQGTKLEIKRTVAAPDVLMTQTPLSLPVTPGEPASISCTSSQNIVHSNGNTYLEWYLQKPGQSPQLLIYKVSNRFSGVPDRFSGSGSGTDFTLKISRVEAEDVGVYYCFQVSHVPYTFGGGTKVEIKR | 16 | –
